Measurements: patent US20240060104A1, “ATP-PRT VARIANT WITH REDUCED FEEDBACK INHIBITION BY HISTIDINE, AND HISTIDINE-PRODUCING STRAIN EXPRESSING SAME” (DAESANG CORPORATION, priority 2020, published 2024)

Biological target: T1, ATP phosphoribosyltransferase (Escherichia coli, UniProt P60757, E271K/H232T/R250H/S288P/T252L)
T1 construct: endogenous in cells; host or cells: E. coli DS9H (chromosomal hisG); sonicated cells, centrifuged supernatant
Assay type: biochemical, E. coli
Conditions: FIG. 1, compared among hisG_WT, hisG_SDM4, hisG_SDM7
Protocol: Each strain was cultured under conditions of 30° C. and 180 rpm. When the OD600 reached 0.6, ATP-PRT expression was induced with 1 mM IPTG (final concentration) and additional culture was performed for about 4 hours. The cells obtained after culturing were sonicated and centrifuged. The obtained supernatants were used for evaluation of ATP phosphoribosyltransferase activity. […] The protein in each supernatant was quantified to match the concentration, and the enzyme activity was measured after mixing the reactants according to the reaction composition shown in Table 8 below.
The activity was measured at 30° C. at a UV wavelength of 290 nm at 2 minute intervals for 30 minutes.

B1: hisG_SDM7: ATP-PRT variant containing H232T, R250H, T252L, E271K and S288P mutations (protein)
chain: MTDNTRLRIAMQKSGRLSDDSRELLARCGIKINLHTQRLIAMAENMPIDILRVRDDDIPGLVMDGVVDLGIIGENVLEEELLNRRAQGEDPRYFTLRRLDFGGCRLSLATPVDEAWDGPLSLNGKRIATSYPHLLKRYLDQKGISFKSCLLNGSVEVAPRAGLADAICDLVSTGATLEANGLREVEVIYRSKACLIQRDGEMEESKQQLIDKLLTRIQGVIQARESKYIMMTAPTERLDEVIALLPGAEHPLILPLAGDQQRVAMHMVSSKTLFWETMEKLKALGASPILVLPIEKMME
modifications: hisG_SDM7
notes: ATP-PRT variant containing H232T, R250H, T252L, E271K and S288P mutations
Resistance to activity inhibition by histidine: best resistance
